Data on two molecules can be found in publication PMC5512577 (2016).

For this experiment, the target named is phosphodiesterase 6 delta subunit (PDE6δ), N-terminal histidine-tagged (UniProt O43924 1-150). Nature of the experiment: FP; mantGppNHp-loaded Arl; stopped-flow.
phosphodiesterase 6 delta subunit (PDE6δ), N-terminal histidine-tagged, sequence (O43924 whole entry, stated change not applied): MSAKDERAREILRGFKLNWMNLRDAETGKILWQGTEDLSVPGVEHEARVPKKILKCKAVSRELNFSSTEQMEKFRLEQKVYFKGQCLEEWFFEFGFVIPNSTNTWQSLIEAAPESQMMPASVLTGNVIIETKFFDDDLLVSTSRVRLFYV

B1: N-terminally truncated Arl2 (aa 17-178), bound to mantGppNHp (domain or fragment)
chain: LRLLMLGLDNAGKTTILKKFNGEDVDTISPTLGFNIKTLEHRGFKLNIWDVGGQKSLRSYWRNYFESTDGLIWVVDSADRQRMQDCQRELQSLLVEERLAGATLLIFANKQDLPGALSCNAIQEALELDSIRSHHWRIQGCSAVTGEDLLPGIDWLLDDISS
Consider B1, for which the off-rate (koff) (as a rule, the rate constant with which the complex falls apart) came out at 0.98 s⁻¹.

B2: full-length Arl2, C-terminal histidine-tagged, bound to GppNHp or mantGppNHp (natural protein)
chain: MGLLTILKKMKQKERELRLLMLGLDNAGKTTILKKFNGEDVDTISPTLGFNIKTLEHRGFKLNIWDVGGQKSLRSYWRNYFESTDGLIWVVDSADRQRMQDCQRELQSLLVEERLAGATLLIFANKQDLPGALSCNAIQEALELDSIRSHHWRIQGCSAVTGEDLLPGIDWLLDDISSRVFTAD
The molecule B2 returned a koff of 0.33 s⁻¹.
